The target in experiment [1] is T1, Sm-Gβ1 with untagged Gγ2 (human, UniProt P62873 2-340; P59768 2-68).
T1 construct: whole, on cells; also called Sm-Gβγ; SmBiT-fused Gβ1 subunit and native Gγ2 subunit
Nature of the experiment: NanoBiT split-luciferase complementation in HEK293 cells (NanoBiT-G12: Gα12-Lg, Sm-Gβ1, Gγ2; pairing from paragraph 252). As for the experimental part: (§1) To complement the inventive chimeric G-protein-based TGFα shedding assay, the inventors made an additional inventive assay in which dissociation of the Gα subunit from the Gβγ subunits, a critical process of G-protein activation, is measured via a luciferase complementation system. Bioluminescence Resonance Energy Transfer (BRET) between a Renilla luciferase-inserted Gα subunit and a GFP10-fused Gβ or Gγ subunit was previously developed to measure Gα-Gβγ dissociation (Gales et al., 2005). Here, they replaced the BRET pair with a split luciferase (NanoLuc Binary Technology; NanoBiT) (Dixon et al., 2016). […] They generated a series of Gα-Lg, Sm-Gβ and Sm-Gγ subunits and optimized a combination.
(§2) Plasmid transfection was performed in a 6-well plate with a mixture of 100 ng Gα-Lg-encoding plasmid, 500 ng Sm-Gβ-encoding plasmid, 500 ng untagged Gγ₂-encoding plasmid, 200 ng GPCR-encoding plasmid with or without 100 ng RIC8-encoding plasmid (per well, hereafter).

Experiment [2] has as its target T1, Sm-Gβ1 with untagged Gγ2. In words: NanoBiT split-luciferase complementation in HEK293 cells (NanoBiT-Gs: Gαs-Lg, Sm-Gβ1, Gγ2; pairing from paragraph 252). The procedure:
as §1, §2

In experiment [3] the target is T1, Sm-Gβ1 with untagged Gγ2. Nature of the experiment: NanoBiT split-luciferase complementation in HEK293 cells (NanoBiT-Gq: Gαq-Lg, Sm-Gβ1, Gγ2; pairing from paragraph 252). The procedure:
as §1, §2

The target in experiment [4] is T1, Sm-Gβ1 with untagged Gγ2. In words: NanoBiT split-luciferase complementation in HEK293 cells (NanoBiT-G13: Gα13-Lg, Sm-Gβ1, Gγ2; pairing from paragraph 252). As for the experimental part:
as §1, §2

T1 sequence (P62873 other isoform, or with tags, fused parts or gaps, chain 1 of 2): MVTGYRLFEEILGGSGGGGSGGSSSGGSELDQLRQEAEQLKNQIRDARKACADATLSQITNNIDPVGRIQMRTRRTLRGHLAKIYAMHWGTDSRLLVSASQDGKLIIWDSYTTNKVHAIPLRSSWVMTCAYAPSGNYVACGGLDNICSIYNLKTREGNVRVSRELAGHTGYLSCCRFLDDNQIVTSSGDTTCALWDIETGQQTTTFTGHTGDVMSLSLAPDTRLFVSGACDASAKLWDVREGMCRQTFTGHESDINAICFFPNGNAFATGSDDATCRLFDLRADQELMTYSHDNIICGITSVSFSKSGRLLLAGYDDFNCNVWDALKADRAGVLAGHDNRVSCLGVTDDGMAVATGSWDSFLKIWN
T1 sequence (P59768 2-68, chain 2 of 2): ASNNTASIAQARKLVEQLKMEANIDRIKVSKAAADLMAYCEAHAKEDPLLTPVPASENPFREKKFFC

B1: Gα12-Lg (other, human, UniProt Q03113 1-381, looked up)
chain: MSGVVRTLSRCLLPAEAGGARERRAGSGARDAEREARRRSRDIDALLARERRAVRRLVKILLLGAGESGKSTFLKQMRIIHGREFDQKALLEFRDTIFDNILKGSRVLVDARDKLGIPWQYSENEKHGMFLMAFENKAGLPVEPATFQLYVPALSALWRDSGIREAFSRRSEFQLGESVKYFLDNLDRIGQLNYFPSKQDILLARKATKGIVEHDFVIKKIPFKMVDVGGQRSQRQKWFQCFDGITSILFMVSSSEYDQVLMEDRRTNRLVESMNIFETIVNNKLFFNVSIILFLNKMDLLVEKVKTVSIKKHFPDFRGDPHRLEDVQRYLVQCFDRKRRNRSKPLFHHFTTAIDTENVRFVFHAVKDTILQENLKDIMLQ
notes: whole, on cells; the LgBiT insert is not placed; also called NanoBiT-G12 (Gα subunit); G12
For B1, the binding result in experiment [1] is “binds”.

B2: Gαs-Lg (other, human, UniProt P63092 2-394, looked up)
chain: GCLGNSKTEDQRNEEKAQREANKKIEKQLQKDKQVYRATHRLLLLGAGESGKSTIVKQMRILHVNGFNGEGGEEDPQAARSNSDGEKATKVQDIKNNLKEAIETIVAAMSNLVPPVELANPENQFRVDYILSVMNVPDFDFPPEFYEHAKALWEDEGVRACYERSNEYQLIDCAQYFLDKIDVIKQADYVPSDQDLLRCRVLTSGIFETKFQVDKVNFHMFDVGGQRDERRKWIQCFNDVTAIIFVVASSSYNMVIREDNQTNRLQEALNLFKSIWNNRWLRTISVILFLNKQDLLAEKVLAGKSKIEDYFPEFARYTTPEDATPEPGEDPRVTRAKYFIRDEFLRISTASGDGRHYCYPHFTCAVDTENIRRVFNDCRDIIQRMHLRQYELL
notes: whole, on cells; the LgBiT insert is not placed; also called NanoBiT-Gs (Gα subunit); Gs
In the case of B2, the binding result in experiment [2] is “binds”.

B3: Gαq-Lg (other, human, UniProt P50148 1-359, looked up)
chain: MTLESIMACCLSEEAKEARRINDEIERQLRRDKRDARRELKLLLLGTGESGKSTFIKQMRIIHGSGYSDEDKRGFTKLVYQNIFTAMQAMIRAMDTLKIPYKYEHNKAHAQLVREVDVEKVSAFENPYVDAIKSLWNDPGIQECYDRRREYQLSDSTKYYLNDLDRVADPAYLPTQQDVLRVRVPTTGIIEYPFDLQSVIFRMVDVGGQRSERRKWIHCFENVTSIMFLVALSEYDQVLVESDNENRMEESKALFRTIITYPWFQNSSVILFLNKKDLLEEKIMYSHLVDYFPEYDGPQRDAQAAREFILKMFVDLNPDSDKIIYSHFTCATDTENIRFVFAAVKDTILQLNLKEYNLV
notes: whole, on cells; the LgBiT insert is not placed; also called NanoBiT-Gq (Gα subunit); Gq
Regarding B3, the binding result in experiment [3] is listed as “binds”.

B4: Gα13-Lg (other, human, UniProt Q14344 1-377, looked up)
chain: MADFLPSRSVLSVCFPGCLLTSGEAEQQRKSKEIDKCLSREKTYVKRLVKILLLGAGESGKSTFLKQMRIIHGQDFDQRAREEFRPTIYSNVIKGMRVLVDAREKLHIPWGDNSNQQHGDKMMSFDTRAPMAAQGMVETRVFLQYLPAIRALWADSGIQNAYDRRREFQLGESVKYFLDNLDKLGEPDYIPSQQDILLARRPTKGIHEYDFEIKNVPFKMVDVGGQRSERKRWFECFDSVTSILFLVSSSEFDQVLMEDRLTNRLTESLNIFETIVNNRVFSNVSIILFLNKTDLLEEKVQIVSIKDYFLEFEGDPHCLRDVQKFLVECFRNKRRDQQQKPLYHHFTTAINTENIRLVFRDVKDTILHDNLKQLMLQ
notes: whole, on cells; the LgBiT insert is not placed; also called NanoBiT-G13 (Gα subunit); G13
On to B4, for which the binding result in experiment [4] is reported as “binds”.

(Values after patent publication US20220220185A1 (CELL NETWORKS, published 2022).)
